The test deals with T1, hPCSK9 (Homo sapiens, UniProt Q8NBP7).
T1 construct: purchased Sino Biologicals, China
Put plainly: hPCSK9 challenge model (hepatic LDL-R expression in mice, Western Blot). Type of test: in vivo, mouse. The settings on record: healthy control 100%, hPCSK9 alone 0%, dose of inhibitor 22 nmol/kg. (In general: A western blot detects proteins with antibodies after separation by electrophoresis.)

Experimental findings from patent US20200165313A1, “EGF(A) ANALOGUES, PREPARATION, FORMULATIONS AND USES THEREOF” (Novo Nordisk A/S, priority 2017, published 2020) are described below.

T1 sequence (Q8NBP7 153-692): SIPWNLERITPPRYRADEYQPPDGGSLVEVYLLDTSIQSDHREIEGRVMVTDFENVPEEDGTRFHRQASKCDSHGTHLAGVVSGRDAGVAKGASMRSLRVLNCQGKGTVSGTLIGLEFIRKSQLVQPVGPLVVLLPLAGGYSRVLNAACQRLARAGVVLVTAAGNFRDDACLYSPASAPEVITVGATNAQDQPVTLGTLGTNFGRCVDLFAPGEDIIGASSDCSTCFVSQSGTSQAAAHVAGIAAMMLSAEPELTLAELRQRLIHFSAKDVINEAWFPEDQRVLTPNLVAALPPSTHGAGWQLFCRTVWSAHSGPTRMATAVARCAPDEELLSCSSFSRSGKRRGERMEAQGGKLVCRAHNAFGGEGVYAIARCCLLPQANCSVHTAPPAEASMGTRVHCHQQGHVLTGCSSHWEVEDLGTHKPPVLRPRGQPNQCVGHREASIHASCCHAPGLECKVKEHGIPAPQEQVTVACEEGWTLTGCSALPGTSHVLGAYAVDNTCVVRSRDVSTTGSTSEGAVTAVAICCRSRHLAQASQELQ
Protocol: The aim of this study was to show the change in the LDL receptor expression level in mouse liver in response to inhibiting the action of intravenously injected hPCSK9 with an anti-PCSK9 peptide.
Healthy male BalBC or NMRI mice (Charles River, Germany) are injected with an anti-PCSK9 peptide, either s.c. or i.v. 15-120 minutes before injecting hPCSK9 (Sino Biologicals, China) intravenously in the tail vein at a dose of 0.4 mg/kg. Sixty minutes after the injection of hPCSK9, the animals are anaesthetised in isoflurane and euthanised by cervical dislocation. The liver is then quickly excised and snapfrozen in liquid nitrogen. The livers are kept at −80 degrees celsius until analysis.
The proteins were transferred to nitrocellulose membranes (iBlot 2 NC Regular stacks, novex # IB23001) according to manufacturer's instructions (Life Technology). Equal protein transfer was confirmed by Ponceau S (Sigma, P7170) staining of the membranes and the membranes were further blocked in blocking buffer (TBS-T, 2% Tween). […] Quantitative analysis of chemiluminescent signals from Western blots was done with MultiGauge software (Fujifilm).
“Vehicle-vehicle” is the group of healthy controls (baseline level), “vehicle-hPCSK9” is the group injected with hPCSK9 alone.

“Alirocumab: anti-PCSK9 antibody, control molecule in the hPCSK9 challenge model” showed a Percentage of baseline of 157%.
